{
  "source": "patent US20110118131A1",
  "about": "(published 2011)",
  "binders": {"B1": {"name": "XPA23 heavy chain D106G (Fab, V domains shown)", "VH": "EVQLLESGGGLVQPGGSLRLSCAASGFTFSKYFMFWVRQAPGKGLEWVSVISPSGGMTRYADSVKGRFTISRDNSKNTLYLQMNSLRAEDTAVYYCARVGYGGNSGYWGQGTLVTVSS", "VL": "DIQMTQSPSSVSASVGDRLTIICRASQDINRWLAWYQQTPGNAPKLLIHSATSLQSGVPSRFSGSGSGTDFTLTINSLQPEDFATYYCQQADSFPLTFGGGTKVEIK", "notes": "Fab, periplasmic extract; also called C5A D106G"}, "B2": {"name": "XPA23 heavy chain G56A (Fab, V domains shown)", "VH": "B1 VH with G56A, G106D", "VL": "B1 VL", "notes": "Fab, periplasmic extract; also called C5A G56A"}, "B3": {"name": "XPA23 heavy chain F33V (Fab, V domains shown)", "VH": "B1 VH with F33V, G106D", "VL": "B1 VL", "notes": "Fab, periplasmic extract; also called C5A F33V"}, "B4": {"name": "XPA23 heavy chain F33P (Fab, V domains shown)", "VH": "B1 VH with F33P, G106D", "VL": "B1 VL", "notes": "Fab, periplasmic extract; also called C5A F33P"}, "B5": {"name": "XPA23 heavy chain G56I (Fab, V domains shown)", "VH": "B1 VH with G56I, G106D", "VL": "B1 VL", "notes": "Fab, periplasmic extract; also called C5A G56I"}, "B6": {"name": "XPA23 heavy chain F35P (Fab, V domains shown)", "VH": "B1 VH with F35P, G106D", "VL": "B1 VL", "notes": "Fab, periplasmic extract; also called C5A F35P"}, "B7": {"name": "XPA23 heavy chain F35A (Fab, V domains shown)", "VH": "B1 VH with F35A, G106D", "VL": "B1 VL", "notes": "Fab, periplasmic extract; also called C5A F35A"}, "B8": {"name": "XPA23 heavy chain G55L (Fab, V domains shown)", "VH": "B1 VH with G55L, G106D", "VL": "B1 VL", "notes": "Fab, periplasmic extract; also called C5A G55L"}, "B9": {"name": "XPA23 heavy chain F35V (Fab, V domains shown)", "VH": "B1 VH with F35V, G106D", "VL": "B1 VL", "notes": "Fab, periplasmic extract; also called C5A F35V"}, "B10": {"name": "XPA23 heavy chain F35L (Fab, V domains shown)", "VH": "B1 VH with F35L, G106D", "VL": "B1 VL", "notes": "Fab, periplasmic extract; also called C5A F35L"}, "B11": {"name": "XPA23 heavy chain F35G (Fab, V domains shown)", "VH": "B1 VH with F35G, G106D", "VL": "B1 VL", "notes": "Fab, periplasmic extract; also called C5A F35G"}, "B12": {"name": "XPA23 heavy chain F33G (Fab, V domains shown)", "VH": "B1 VH with F33G, G106D", "VL": "B1 VL", "notes": "Fab, periplasmic extract; also called C5A F33G"}, "B13": {"name": "XPA23 heavy chain F33I (Fab, V domains shown)", "VH": "B1 VH with F33I, G106D", "VL": "B1 VL", "notes": "Fab, periplasmic extract; also called C5A F33I"}, "B14": {"name": "XPA23 heavy chain F33A (Fab, V domains shown)", "VH": "B1 VH with F33A, G106D", "VL": "B1 VL", "notes": "Fab, periplasmic extract; also called C5A F33A"}, "B15": {"name": "XPA23 heavy chain F33L (Fab, V domains shown)", "VH": "B1 VH with F33L, G106D", "VL": "B1 VL", "notes": "Fab, periplasmic extract; also called C5A F33L"}, "B16": {"name": "XPA23 heavy chain F35T (Fab, V domains shown)", "VH": "B1 VH with F35T, G106D", "VL": "B1 VL", "notes": "Fab, periplasmic extract; also called C5A F35T"}, "B17": {"name": "XPA23 heavy chain F33T (Fab, V domains shown)", "VH": "B1 VH with F33T, G106D", "VL": "B1 VL", "notes": "Fab, periplasmic extract; also called C5A F33T"}, "B18": {"name": "XPA23 heavy chain G55I (Fab, V domains shown)", "VH": "B1 VH with G55I, G106D", "VL": "B1 VL", "notes": "Fab, periplasmic extract; also called C5A G55I"}, "B19": {"name": "XPA23 heavy chain F35I (Fab, V domains shown)", "VH": "B1 VH with F35I, G106D", "VL": "B1 VL", "notes": "Fab, periplasmic extract; also called C5A F35I"}, "B20": {"name": "XPA23 light chain W32F (Fab, V domains shown)", "VH": "B1 VH with G106D", "VL": "B1 VL with W32F"}, "B21": {"name": "XPA23 light chain T52Y (Fab, V domains shown)", "VH": "B1 VH with G106D", "VL": "B1 VL with T52Y"}, "B22": {"name": "XPA23 light chain W32H (Fab, V domains shown)", "VH": "B1 VH with G106D", "VL": "B1 VL with W32H"}, "B23": {"name": "XPA23 light chain W32L (Fab, V domains shown)", "VH": "B1 VH with G106D", "VL": "B1 VL with W32L"}, "B24": {"name": "XPA23 light chain W32K (Fab, V domains shown)", "VH": "B1 VH with G106D", "VL": "B1 VL with W32K"}, "B25": {"name": "XPA23 light chain T52V (Fab, V domains shown)", "VH": "B1 VH with G106D", "VL": "B1 VL with T52V"}, "B26": {"name": "XPA23 light chain W32P (Fab, V domains shown)", "VH": "B1 VH with G106D", "VL": "B1 VL with W32P"}, "B27": {"name": "XPA23 light chain W32R (Fab, V domains shown)", "VH": "B1 VH with G106D", "VL": "B1 VL with W32R"}, "B28": {"name": "XPA23 light chain W32E (Fab, V domains shown)", "VH": "B1 VH with G106D", "VL": "B1 VL with W32E"}, "B29": {"name": "XPA23 light chain T52S (Fab, V domains shown)", "VH": "B1 VH with G106D", "VL": "B1 VL with T52S"}, "B30": {"name": "XPA23 light chain W32N (Fab, V domains shown)", "VH": "B1 VH with G106D", "VL": "B1 VL with W32N"}, "B31": {"name": "XPA23 light chain W32S (Fab, V domains shown)", "VH": "B1 VH with G106D", "VL": "B1 VL with W32S"}, "B32": {"name": "XPA23 light chain W32Y (Fab, V domains shown)", "VH": "B1 VH with G106D", "VL": "B1 VL with W32Y"}, "B33": {"name": "XPA23 light chain W32T (Fab, V domains shown)", "VH": "B1 VH with G106D", "VL": "B1 VL with W32T"}, "B34": {"name": "XPA23 light chain W32A (Fab, V domains shown)", "VH": "B1 VH with G106D", "VL": "B1 VL with W32A"}, "B35": {"name": "XPA23 light chain W32I (Fab, V domains shown)", "VH": "B1 VH with G106D", "VL": "B1 VL with W32I"}, "B36": {"name": "XPA23 light chain W32D (Fab, V domains shown)", "VH": "B1 VH with G106D", "VL": "B1 VL with W32D"}, "B37": {"name": "XPA23 light chain T52W (Fab, V domains shown)", "VH": "B1 VH with G106D", "VL": "B1 VL with T52W"}, "B38": {"name": "XPA23 light chain T52R (Fab, V domains shown)", "VH": "B1 VH with G106D", "VL": "B1 VL with T52R"}, "B39": {"name": "XPA23 light chain W32V (Fab, V domains shown)", "VH": "B1 VH with G106D", "VL": "B1 VL with W32V"}, "B40": {"name": "XPA23 light chain W32Q (Fab, V domains shown)", "VH": "B1 VH with G106D", "VL": "B1 VL with W32Q"}, "B41": {"name": "XPA23 light chain T52Q (Fab, V domains shown)", "VH": "B1 VH with G106D", "VL": "B1 VL with T52Q"}, "B42": {"name": "XPA23 light chain W32G (Fab, V domains shown)", "VH": "B1 VH with G106D", "VL": "B1 VL with W32G"}},
  "note": "Numbering of substitutions follows the chain as printed. In names and notes the source's numbering stands.",
  "data": [
    {"target": "T1, IL-1β (UniProt P01584 117-269)", "T1 construct": "Antigen of XPA23", "test": "Biacore, Fab periplasmic extract", "units": {"fold difference in affinity against the original": "fold"}, "values": [
      {"binder": "B1", "fold difference in affinity against the original": 0.03},
      {"binder": "B2", "fold difference in affinity against the original": 1.21},
      {"binder": "B3", "fold difference in affinity against the original": 0.76},
      {"binder": "B4", "fold difference in affinity against the original": 0.91},
      {"binder": "B5", "fold difference in affinity against the original": 1.71},
      {"binder": "B6", "fold difference in affinity against the original": 0.06},
      {"binder": "B7", "fold difference in affinity against the original": 0.07},
      {"binder": "B8", "fold difference in affinity against the original": 0.08},
      {"binder": "B9", "fold difference in affinity against the original": 0.89},
      {"binder": "B10", "fold difference in affinity against the original": 0.78},
      {"binder": "B11", "fold difference in affinity against the original": 0.04},
      {"binder": "B12", "fold difference in affinity against the original": 0.76},
      {"binder": "B13", "fold difference in affinity against the original": 0.75},
      {"binder": "B14", "fold difference in affinity against the original": 0.75},
      {"binder": "B15", "fold difference in affinity against the original": 0.88},
      {"binder": "B16", "fold difference in affinity against the original": 0.74},
      {"binder": "B17", "fold difference in affinity against the original": 0.78},
      {"binder": "B18", "fold difference in affinity against the original": 0.86},
      {"binder": "B19", "fold difference in affinity against the original": 0.85}
    ]},
    {"target": "T2, IL-1β (UniProt P01584 117-269)", "T2 construct": "Antigen immobilised on the Biacore chip", "test": "Biacore, periplasmic extract", "units": {"fold difference in affinity vs original": "fold"}, "values": [
      {"binder": "B20", "binding result": "no binding"},
      {"binder": "B21", "fold difference in affinity vs original": 1.01},
      {"binder": "B22", "binding result": "no binding"},
      {"binder": "B23", "binding result": "no binding"},
      {"binder": "B24", "binding result": "no binding"},
      {"binder": "B25", "fold difference in affinity vs original": 0.82},
      {"binder": "B26", "binding result": "no binding"},
      {"binder": "B27", "binding result": "no binding"},
      {"binder": "B28", "binding result": "no binding"},
      {"binder": "B29", "fold difference in affinity vs original": 0.78},
      {"binder": "B30", "binding result": "no binding"},
      {"binder": "B31", "binding result": "no binding"},
      {"binder": "B32", "binding result": "no binding"},
      {"binder": "B33", "binding result": "no binding"},
      {"binder": "B34", "binding result": "no binding"},
      {"binder": "B35", "binding result": "no binding"},
      {"binder": "B36", "binding result": "no binding"},
      {"binder": "B37", "fold difference in affinity vs original": 0.87},
      {"binder": "B38", "fold difference in affinity vs original": 3.37},
      {"binder": "B39", "binding result": "no binding"},
      {"binder": "B40", "binding result": "no binding"},
      {"binder": "B41", "fold difference in affinity vs original": 0.83},
      {"binder": "B42", "binding result": "no binding"}
    ]}
  ]
}
